This note sets out measurements from patent US20070105759.

One may read the Ki as the equilibrium dissociation constant of an inhibitor or competing ligand from its target.

The target of this assay is human MC4 receptor (human), P32245. The assay is described as follows: competition. As to conditions: modification not given.
Chain of human MC4 receptor (human), P32245 (P32245 whole entry): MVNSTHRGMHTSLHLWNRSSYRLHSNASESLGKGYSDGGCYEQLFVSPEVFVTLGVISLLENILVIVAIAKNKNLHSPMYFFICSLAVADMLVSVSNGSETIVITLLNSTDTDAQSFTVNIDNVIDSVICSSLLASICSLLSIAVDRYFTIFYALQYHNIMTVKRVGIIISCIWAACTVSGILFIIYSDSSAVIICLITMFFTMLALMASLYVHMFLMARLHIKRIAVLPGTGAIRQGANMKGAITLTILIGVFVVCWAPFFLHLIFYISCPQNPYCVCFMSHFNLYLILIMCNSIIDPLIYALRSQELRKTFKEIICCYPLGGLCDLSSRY

YRCEHFRWC [Compound 77] came in with a Ki of 0.41 nM.
